Changes are numbered by the printed parent chain.

First the molecules themselves.
T1: human CLEC-1A expressed on the cell membrane (human, UniProt Q8NC01 1-280)
T1 construct: Endogenous on human U266 myeloma cells, on monocyte-derived TGFb-DC and macrophages; on CHO cells after transduction with a Clec-1 expressing lentivirus; also called U266 CLEC1; CLEC-1A on U266 cells
T1 sequence: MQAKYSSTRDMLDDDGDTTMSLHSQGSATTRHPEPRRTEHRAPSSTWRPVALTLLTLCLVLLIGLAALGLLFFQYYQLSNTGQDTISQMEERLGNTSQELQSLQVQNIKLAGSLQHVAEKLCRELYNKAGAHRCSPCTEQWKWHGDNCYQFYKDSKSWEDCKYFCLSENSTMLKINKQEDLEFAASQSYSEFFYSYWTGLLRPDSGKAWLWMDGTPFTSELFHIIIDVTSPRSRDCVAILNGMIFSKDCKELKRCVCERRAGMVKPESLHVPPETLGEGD

T2: recombinant human CLEC-1 protein with His Tag (#1704-CL R&D Systems) (human, UniProt Q8NC01 74-280)
T2 construct: Bought protein; also called His-CLEC1; His Clec-1; not shown: His tag
T2 sequence: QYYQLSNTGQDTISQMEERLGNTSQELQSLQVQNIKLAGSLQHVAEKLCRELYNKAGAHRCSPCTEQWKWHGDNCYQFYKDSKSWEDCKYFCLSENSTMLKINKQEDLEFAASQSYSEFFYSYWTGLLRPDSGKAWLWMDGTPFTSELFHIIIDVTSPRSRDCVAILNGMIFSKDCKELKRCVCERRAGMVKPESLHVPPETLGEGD

T3: Fc-CLEC1 labelled with Alexa Fluor 488 (human, Alexa Fluor 488 label (sites not given))
T3 construct: also called Fc-CLEC1-A488; Alexa488-Fc-Clec-1
T3 chain: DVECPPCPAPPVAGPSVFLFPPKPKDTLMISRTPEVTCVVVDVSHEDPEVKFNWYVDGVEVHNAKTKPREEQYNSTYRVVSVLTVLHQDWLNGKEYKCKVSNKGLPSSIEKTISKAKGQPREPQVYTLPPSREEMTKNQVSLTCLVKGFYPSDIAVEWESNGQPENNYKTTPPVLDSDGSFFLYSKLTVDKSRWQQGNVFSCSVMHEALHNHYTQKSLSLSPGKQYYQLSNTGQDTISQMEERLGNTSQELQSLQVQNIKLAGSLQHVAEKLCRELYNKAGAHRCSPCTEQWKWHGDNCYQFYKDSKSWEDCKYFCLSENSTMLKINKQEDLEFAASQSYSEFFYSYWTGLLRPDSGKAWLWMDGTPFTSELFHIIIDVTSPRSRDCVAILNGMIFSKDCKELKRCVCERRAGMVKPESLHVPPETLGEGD

B1: murine anti-hCLEC1 antibody 6C5-A4 (antibody, V domains shown)
VH: QVQLQQSGPELVKPGASVKMSCKASGYTFTDYVISWVKQKTGQGLEWIGEIYPGSGNTYYNEKFKGKATLTADKSSSTAYIHLSSLTSEDSAVYFCAGGGSSHFDYWGQGTTLTVSS
VL: not shown
notes: Mouse hybridoma antibody
B2: murine anti-hCLEC1 antibody 10F4-H2 (antibody, V domains shown)
VH: QVQLQQSGTELARPGASVKMSCKASGYIFTDYTIHWVKQRPGQGLEWVGYINPSSGYTNYNQKFKAKATLTADKSSSTAYMQLSSLTSEDSAVYYCTPMFRRSYFDYWGQGTTLTVSS
VL: DAVMTQTPLSLPVSLGDQASISCRSSQSLENSNGNTYLNWYLQKPGQSPQLLIYRVSNRFSGVLDRFSGSGSGTDFTLKISRVEAEDLGVYFCLQVTHVPYTFGGGTKLEIK
notes: Mouse hybridoma antibody
B3: murine anti-hCLEC1 antibody 14H9-F3 (antibody, V domains shown)
VH: QVQLKESGPGLVAPSQSLSITCTISGFSLTTYGIHWVRQPPGKGLEWLVVIWSDGSTIYNSALKSRLSISKDNSKSQVFLKMNSLQTDDTAIYYCARHGGYYNYFDYWGQGTTLTVSS
VL: DIQMNQSPSSLSASLGDTITITCHASQNINVWLSWYQQKPGNIPKLLIYKASNLHTGVPSRFSGSGSGTTFTLTIDSLQPEDIATYYCQQGQSYWTFGGGTKLEIK
notes: Mouse hybridoma antibody
B4: murine anti-hCLEC1 antibody 5D1-A5 (antibody, V domains shown)
VH: B3 VH with T31S, I34V, I92M
VL: B3 VL with T70G, D76S
notes: Mouse hybridoma antibody
B5: murine anti-hCLEC1 antibody 15E3-G3 (antibody, V domains shown)
VH: QVQLQQSGPELVKPGASVKMSCKASGFTFTDYVIAWVKVRTGQGLEWIGEIYPGSGSIYYNEKFKGKATLTADKSSNTAYMQLSSLTSEDSAVYFCASSTVVAFDYWGQGTTLTVSS
VL: EIVLTQSPTTLAASPGEKIIITCSDSSSISSNYLHWYQQKPGFSPKLLIYGTSNLASGVPARFSGSGSGTTYSLTIGTMEAEDVATYYCQQGSSIPRTFGGGTKLEIK
notes: Mouse hybridoma antibody
B6: murine anti-hCLEC1 antibody 21B1-E10 (antibody, V domains shown)
VH: B3 VH
VL: DIVMSQSPSSLAVSVGEKVTLTCKSTQNLFYSTNQKNYLAWYQQKPGQSPKLLIYWASTRESGVPDRFTGSGSGTDFTLTISSVKAEDPAVYYCQQYYTYPWTFGGGTKLEIK
notes: tied to the 21B1 variable domains by name

The first assay concerns the target T1, human CLEC-1A expressed on the cell …. As to the kind of experiment: flow cytometry on U266 cells; printed as ED50, read-out Mean. (In general: In flow cytometry, cells or beads pass a laser one at a time.)
Consider B1, for which the EC50 (as a rule, the concentration that produces a half-maximal response) amounted to 0.17 µg/mL.
Still for that read-out and setting: the result for B2 reads 0.22 µg/mL.
Take B3: the EC50 turned out to be 0.072 µg/mL.
For B4, the EC50 came to 0.12 µg/mL.
B5: the EC50 was 0.59 µg/mL.

For a further assay the target is unchanged. Description: flow cytometry on U266 cells; printed as ED50, read-out % + cells.
For the molecule B1, the EC50 was 0.051 µg/mL.
On the same count and under the same terms, under B2 stands 0.034 µg/mL.
As to B3, the EC50 was 0.0065 µg/mL.
Take B4: the EC50 worked out at 0.0064 µg/mL.
Consider B5, for which the EC50 is 0.074 µg/mL.

Another assay has as its target T2, recombinant human CLEC-1 protein with …. As to the kind of experiment: BLI (Blitz), CLEC1-His on Ni-NTA biosensor, antibody at 20 ug/mL; murine clone, FIG. 16. How it is done: (§1) Analysis was performed with a BLItz System (Fortébio, #C22-2 No 61010-1, Molecular Devices, San José, USA).
(§2) The affinity of the anti-hCLEC1 antibodies, was measured with Blitz system (Forté Bio, C22-2 No 61010-1).
As to B6, the Kd (usually the free concentration of one partner at which half of the binding sites on the other are occupied at equilibrium, for simple one-to-one binding) is ~1 nM.

Another assay shares this target. As to the kind of experiment: ELISA on immobilised human His-CLEC1 (column hm His Clec); given as ED50. How it is done:
Method: The binding activity of the anti-hCLEC1 antibodies was assessed by ELISA (Enzyme-linked immunosorbent assay). […] A second ELISA assays was performed, like above, with immobilization of CLEC1-Fc (OSE Immunotherapeutics) at 2 μg/ml. A third ELISA assays was performed to see the cross-reactivity with mouse CLEC1. Like above, ELISA was made with immobilization of mouse Fc-CLEC1 (OSE Immunotherapeutics) at 2 μg/ml in carbonate buffer instead of His-Clec. Purified antibodies were added at different concentrations to measure binding. […] Control antibody is a commercial anti-CLEC-1A antibody.
For orientation: In an ELISA, binding on a coated surface is turned into a signal by an enzyme label.
B1: the EC50 turned out to be 0.012 µg/mL.
Consider B2, for which the half-maximal effective concentration (EC50) was 0.0128 µg/mL.
The same measure, in the same setting: under B3 stands 0.157 µg/mL.
On to B4, for which the EC50 is 1.31 µg/mL.
With B5, the EC50 came out at 0.0466 µg/mL.

The next assay shares this target. Description: Blitz biolayer interferometry, His-CLEC1 on Ni-NTA biosensor, antibody at 20 ug/mL. How it is done: as §1, §2
In general terms: In BLI a coated tip is dipped into the sample, and binding shifts an interference pattern.
As for B1, the Kd came to 14.7 nM; the koff – broadly, the rate constant with which the complex falls apart – amounted to 0.000934 s⁻¹; the kon (usually the second-order rate constant of association) is 63400 M⁻¹ s⁻¹.
On to B2, for which the dissociation constant Kd was 5.72 nM, the koff came out at 0.000621 s⁻¹ and the kon stood at 109000 M⁻¹ s⁻¹.
As to B3, the Kd is 8.24 nM, the koff was determined as 0.00074 s⁻¹ and the kon came to 89800 M⁻¹ s⁻¹.
As for B4, the Kd is 16.1 nM, the koff turned out to be 0.00124 s⁻¹ and the kon is 76600 M⁻¹ s⁻¹.
On to B5, for which the Kd was 14 nM, the koff was 0.00101 s⁻¹ and the kon turned out to be 72200 M⁻¹ s⁻¹.

The next assay concerns the target T3, Fc-CLEC1 labelled with Alexa Fluor 488. As to the kind of experiment: FACS competition: blocks Fc-CLEC1-A488 (10 nM) binding to CLEC-1 ligand on UV-treated PBMC; read-out Mean. How it is done: (§3) Methods. To measure competition on permeabilised Raji (CytoFix/cytoperm kit, BD Biosciences) which expressed CLEC1 ligand, Fc-CLEC1-labelled A488 which bound specifically to permeabilised Raji was used. To measure competition, Fc-CLEC1 labelled A488 at 10 nM or 20 nM was mixed with mouse anti-hCLEC1 at different concentrations for 15 min at RT then added on these cells for 30 min at 4° C. […] To measure competition on PMBC, we used human PBMC pre-treated by UV for 18 h to obtain apoptotic PBMC, which expressed CLEC1 ligand. Fc-CLEC1-labelled A488 bound specifically apoptotic UV-treated PBMC. To measure competition, Fc-CLEC1 labelled A488 at 10 nM was mixed with mouse anti-hCLEC1 at different concentrations for 15 min at RT then added on these cells for 30 min at 4° C.
As for B1, the IC50 (commonly the point on the concentration scale where inhibition reaches its midpoint) was determined as 2.2 µg/mL.
As to B2, the IC50 was found to be 2.8 µg/mL.
With B3, the IC50 worked out at 3.1 µg/mL.
B4: the IC50 came out at 3.8 µg/mL.
Take B5: the IC50 amounted to 4.5 µg/mL.

The target is the same in another assay. Description: FACS competition: blocks Fc-CLEC1-A488 (10 nM) binding to CLEC-1 ligand on UV-treated PBMC; read-out % + cells. How it is done:
as §3
B1: the IC50 was 2 µg/mL.
Regarding B2, the IC50 is 0.79 µg/mL.
On to B3, for which the IC50 was found to be 0.031 µg/mL.
Same read-out and setting: under B4 stands 0.13 µg/mL.
On to B5, for which the IC50 worked out at 0.69 µg/mL.

A further assay shares this target. As to the kind of experiment: FACS competition: blocks Fc-CLEC1-A488 (10 nM) binding to CLEC-1 ligand on permeabilised Raji cells; read-out Mean. On the procedure: as §3
Regarding B1, the IC50 came out at 1.7 µg/mL.
B2: the IC50 came out at 2.1 µg/mL.
Take B3: the IC50 came to 0.84 µg/mL.
Consider B4, for which the IC50 was 4.4 µg/mL.
B5: the IC50 was 1.3 µg/mL.

A further assay has the same target. As to the kind of experiment: FACS competition: blocks Fc-CLEC1-A488 (20 nM) binding to CLEC-1 ligand on permeabilised Raji cells; read-out Mean. On the procedure:
as §3
Turning to B1, the IC50 is 1.7 µg/mL.
Still for that read-out and setting: the result for B2 reads 2.5 µg/mL; that for B3, 2.5 µg/mL; that for B4, 3.1 µg/mL.
As to B5, the IC50 came to 3 µg/mL.

Another assay shares this target. As to the kind of experiment: FACS competition: blocks Fc-CLEC1-A488 (10 nM) binding to CLEC-1 ligand on permeabilised Raji cells; read-out % + cells. On the procedure: as §3
Turning to B1, the IC50 came to 19 µg/mL.
Turning to B2, the IC50 was found to be 11 µg/mL.
Turning to B3, the IC50 amounted to 3.2 µg/mL.
On to B4, for which the IC50 was found to be 12 µg/mL.
For the molecule B5, the IC50 was determined as 7.7 µg/mL.

The target is the same in the next assay. As to the kind of experiment: FACS competition: blocks Fc-CLEC1-A488 (20 nM) binding to CLEC-1 ligand on permeabilised Raji cells; read-out % + cells. How it is done:
as §3
Take B1: the IC50 came out at 1.5 µg/mL.
The same measure, in the same setting: under B2 stands 0.82 µg/mL.
Regarding B3, the IC50 turned out to be 22 µg/mL.
Same read-out and setting: under B4 stands 0.21 µg/mL.
On to B5, for which the IC50 is 14 µg/mL.

For the origin of these results see patent US20230331852A1 (OSE IMMUNOTHERAPEUTICS, published 2023).
